Reference: patent publication US20070099248A1

Biological target: biotinylated AP-neuroligin-1 on rat hippocampal neurons (mouse neuroligin-1 with acceptor peptide at the N-terminus, biotinylated with biotin ligase) (mouse) (UniProt Q99K10)
Experiment: cell-based or functional assay

biotinylated AP-neuroligin-1 on rat hippocampal neurons (mouse neuroligin-1 with acceptor peptide at the N-terminus, biotinylated with biotin ligase) (mouse), sequence (Q99K10 46-843, form in doubt): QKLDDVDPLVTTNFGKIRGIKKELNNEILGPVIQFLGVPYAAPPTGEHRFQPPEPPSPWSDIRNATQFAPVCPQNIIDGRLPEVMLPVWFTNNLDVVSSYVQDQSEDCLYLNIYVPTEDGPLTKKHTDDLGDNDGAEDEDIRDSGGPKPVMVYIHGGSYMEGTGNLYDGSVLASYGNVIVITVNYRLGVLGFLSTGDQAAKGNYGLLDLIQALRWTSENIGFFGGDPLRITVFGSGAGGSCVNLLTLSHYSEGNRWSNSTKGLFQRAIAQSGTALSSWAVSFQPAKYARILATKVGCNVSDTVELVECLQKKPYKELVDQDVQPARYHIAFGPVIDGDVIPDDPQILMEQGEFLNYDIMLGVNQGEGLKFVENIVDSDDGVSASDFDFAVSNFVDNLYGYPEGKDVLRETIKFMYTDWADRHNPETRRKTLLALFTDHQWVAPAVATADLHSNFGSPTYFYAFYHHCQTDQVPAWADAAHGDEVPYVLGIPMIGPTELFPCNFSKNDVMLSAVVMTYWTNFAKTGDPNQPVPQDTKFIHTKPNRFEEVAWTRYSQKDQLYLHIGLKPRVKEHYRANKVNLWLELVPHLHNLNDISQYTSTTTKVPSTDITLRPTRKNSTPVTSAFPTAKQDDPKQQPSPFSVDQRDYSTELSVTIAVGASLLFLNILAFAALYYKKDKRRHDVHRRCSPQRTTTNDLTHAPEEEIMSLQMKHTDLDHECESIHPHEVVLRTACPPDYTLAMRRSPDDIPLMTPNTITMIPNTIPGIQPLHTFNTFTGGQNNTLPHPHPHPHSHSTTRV

clusters/µm of dendrite after two hour incubation | Substance
0.087 clusters/µm | monovalent streptavidin A1D3 (one Alive subunit with His6 tag, three Dead subunits), Alexa Fluor 568-conjugated (designed binder)
0.266 clusters/µm | Alexa Fluor 568-conjugated wild-type streptavidin (Molecular Probes) (from UniProt P22629 37-163)
